Experimental data: US20220175946A1 (MAGENTA THERAPEUTICS, published 2022)

B1: Antibody 56 (Ab56) (antibody, V domains shown)
VH: QVQLVQSGAEVKKPGSSVKVSCKASGGTFSLYAISWVRQAPGQGLEWMGGIIPAFGTANYAQKFQGRVTITADESTSTAYMELSSLRSEDTAVYYCARGGLDTDEFDLWGRGTLVTVSS
VL: DIQMTQSPSSLSASVGDRVTITCRASQSINSYLNWYQQKPGKAPKLLIYAASSLQSGVPSRFSGSGSGTDFTLTISSLQPEDFATYYCQQGVSDITFGGGTKVEIKR
B2: Antibody 54 (Ab54) (antibody, V domains shown)
VH: QVQLVQSGAEVKKPGSSVKVSCKASGGTFSSYAISWVRQAPGQGLEWMGGIIPIFGTANYAQKFQGRVTITADESTSTAYMELSSLRSEDTAVYYCARGGLDTDEFDLWGRGTLVTVSS
VL: DIQMTQSPSSLSASVGDRVTITCRASQSINSYLNWYQQKPGKAPKLLIYAASSLQSGVPSRFSGSGSGTDFTLTISSLQPEDFATYYCQQGVSDITFGGGTKVEIKR
B3: Antibody 55 (Ab55) (antibody, V domains shown)
VH: QVQLVQSGAEVKKPGSSVKVSCKASGGTFRIYAISWVRQAPGQGLEWMGGIIPDFGVANYAQKFQGRVTITADESTSTAYMELSSLRSEDTAVYYCARGGLDTDEFDLWGRGTLVTVSS
VL: DIQMTQSPSSLSASVGDRVTITCRASQSINSYLNWYQQKPGKAPKLLIYAASSLQSGVPSRFSGSGSGTDFTLTISSLQPEDFATYYCQQGVSDITFGGGTKVEIKR
B4: Antibody 57 (Ab57) (antibody, V domains shown)
VH: QVQLVQSGAEVKKPGSSVKVSCKASGGTFSLYAISWVRQAPGQGLEWMGGIIPHFGLANYAQKFQGRVTITADESTSTAYMELSSLRSEDTAVYYCARGGLDTDEFDLWGRGTLVTVSS
VL: DIQMTQSPSSLSASVGDRVTITCRASQSINSYLNWYQQKPGKAPKLLIYAASSLQSGVPSRFSGSGSGTDFTLTISSLQPEDFATYYCQQGVSDITFGGGTKVEIKR
B5: Antibody 67 (Ab67) (antibody, V domains shown)
VH: EVQLVESGGGLVQPGGSLRLSCAASGFTFSDADMDWVRQAPGKGLEWVGRTRNKAGSYTTEYAASVKGRFTISRDDSKNSLYLQMNSLKTEDTAVYYCAREPKYWIDFDLWGRGTLVTVSS
VL: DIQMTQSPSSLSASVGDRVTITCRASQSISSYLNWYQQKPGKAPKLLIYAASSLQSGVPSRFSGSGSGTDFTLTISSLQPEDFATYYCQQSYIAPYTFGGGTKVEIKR
B6: Antibody 66 (Ab66) (antibody, V domains shown)
VH: EVQLVESGGGLVQPGGSLRLSCAASGFTFSDHYMDWVRQAPGKGLEWVGRTRNKASSYTTEYAASVKGRFTISRDDSKNSLYLQMNSLKTEDTAVYYCAREPKYWIDFDLWGRGTLVTVSS
VL: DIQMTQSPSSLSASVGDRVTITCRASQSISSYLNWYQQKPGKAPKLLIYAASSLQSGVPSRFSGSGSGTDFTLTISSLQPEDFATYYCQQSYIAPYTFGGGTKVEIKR
B7: Antibody 68 (Ab68) (antibody, V domains shown)
VH: EVQLVESGGGLVQPGRSLRLSCTASGFTFSDHDMNWVRQAPGKGLEWVGRTRNAAGSYTTEYAASVKGRFTISRDDSKNSLYLQMNSLKTEDTAVYYCAREPKYWIDFDLWGRGTLVTVSS
VL: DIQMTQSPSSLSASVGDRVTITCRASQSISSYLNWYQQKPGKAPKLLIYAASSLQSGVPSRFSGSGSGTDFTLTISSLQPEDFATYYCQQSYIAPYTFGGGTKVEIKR
B8: Antibody 69 (Ab69) (antibody, V domains shown)
VH: EVQLVESGGGLVQPGGSLRLSCAASGFTFVDHDMDWVRQAPGKGLEWVGRTRNKLGSYTTEYAASVKGRFTISRDDSKNSLYLQMNSLKTEDTAVYYCAREPKYWIDFDLWGRGTLVTVSS
VL: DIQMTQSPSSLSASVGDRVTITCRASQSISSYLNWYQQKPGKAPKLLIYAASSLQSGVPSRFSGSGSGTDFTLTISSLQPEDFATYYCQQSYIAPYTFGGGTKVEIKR
B9: CK6 (antibody, V domains shown)
VH: QVQLVQSGAAVKKPGESLKISCKGSGYRFTSYWIGWVRQMPGKGLEWMGIIYPGDSDTRYSPSFQGQVTISAGKSISTAYLQWSSLKASDTAMYYCARHGRGYNGYEGAFDIWGQGTMVTVSS
VL: AIQLTQSPSSLSASVGDRVTITCRASQGISSALAWYQQKPGKAPKLLIYDASSLESGVPSRFSGSGSGTDFTLTISSLQPEDFATYYCQQFNSYPLTFGGGTKVEIK
B10: Antibody 58 (Ab58) (antibody, V domains shown)
VH: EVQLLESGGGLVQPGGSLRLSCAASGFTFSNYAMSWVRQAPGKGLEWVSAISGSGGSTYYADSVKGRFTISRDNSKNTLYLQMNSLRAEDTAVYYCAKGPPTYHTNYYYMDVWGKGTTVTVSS
VL: DIQMTQSPSSVSASVGDRVTITCRASQGISSWLAWYQQKPGKAPKLLIYAASSLQSGVPSRFSGSGSGTDFTLTISSLQPEDFATYYCQQTNSFPYTFGGGTKVEIKR
B11: Antibody 61 (Ab61) (antibody, V domains shown)
VH: EVQLLESGGGLVQPGGSLRLSCAASGFTFSSYVMIWVRQAPGKGLEWVSSISGDSVTTYYADSVKGRFTISRDNSKNTLYLQMNSLRAEDTAVYYCAKGPPTYHTNYYYMDVWGKGTTVTVSS
VL: DIQMTQSPSSVSASVGDRVTITCRASQGISSWLAWYQQKPGKAPKLLIYAASSLQSGVPSRFSGSGSGTDFTLTISSLQPEDFATYYCQQTNSFPYTFGGGTKVEIKR

The binders below were run against Human CD117 as expressed on cells (Kasumi-1 cells; primary human CD34+ bone marrow cells) (human, UniProt P10721 26-976) (assay: cell-based or functional assay).
Chain of Human CD117 as expressed on cells (Kasumi-1 cells; primary human CD34+ bone marrow cells) (P10721 26-976 limits assumed): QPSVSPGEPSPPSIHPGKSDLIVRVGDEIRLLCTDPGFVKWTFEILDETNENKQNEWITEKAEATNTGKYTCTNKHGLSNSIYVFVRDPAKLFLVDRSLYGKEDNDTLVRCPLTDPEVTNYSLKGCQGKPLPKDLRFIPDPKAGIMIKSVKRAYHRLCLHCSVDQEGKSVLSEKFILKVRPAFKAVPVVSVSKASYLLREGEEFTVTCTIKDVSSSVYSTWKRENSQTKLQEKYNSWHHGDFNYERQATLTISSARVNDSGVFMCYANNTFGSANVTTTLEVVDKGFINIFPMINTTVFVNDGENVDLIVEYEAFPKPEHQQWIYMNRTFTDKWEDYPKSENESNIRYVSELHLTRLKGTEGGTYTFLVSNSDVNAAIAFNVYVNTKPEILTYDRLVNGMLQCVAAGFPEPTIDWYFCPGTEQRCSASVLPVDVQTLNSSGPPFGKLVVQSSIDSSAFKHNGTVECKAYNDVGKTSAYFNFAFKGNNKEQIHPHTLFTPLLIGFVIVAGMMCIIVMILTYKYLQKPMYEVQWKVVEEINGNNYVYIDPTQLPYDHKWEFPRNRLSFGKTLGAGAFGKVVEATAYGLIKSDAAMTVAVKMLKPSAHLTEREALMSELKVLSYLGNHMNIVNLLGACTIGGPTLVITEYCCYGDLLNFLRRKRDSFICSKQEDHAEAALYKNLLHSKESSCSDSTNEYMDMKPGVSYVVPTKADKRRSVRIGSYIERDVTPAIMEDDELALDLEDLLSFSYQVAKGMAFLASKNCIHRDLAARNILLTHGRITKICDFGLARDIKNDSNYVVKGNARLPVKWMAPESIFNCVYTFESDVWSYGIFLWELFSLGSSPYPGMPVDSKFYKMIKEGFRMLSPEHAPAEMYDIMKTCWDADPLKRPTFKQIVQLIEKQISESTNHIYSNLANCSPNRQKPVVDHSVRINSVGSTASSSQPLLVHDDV

**Q.** B1 was tested. Which “AUC Kasumi-1 Killing (AUC hIgG1 - AUC MAC ID#)” value (“AUC Kasumi-1 Killing” for short) did it give?
**A.** 193000

**Q.** For B2, which “AUC Kasumi-1 Killing” value is on record?
**A.** 155000

**Q.** For B3, which “AUC Kasumi-1 Killing” value is on record?
**A.** 226000

**Q.** How did the “AUC Kasumi-1 Killing” value turn out when B4 was run?
**A.** 157000

**Q.** How did the “AUC Kasumi-1 Killing” value turn out when B5 was run?
**A.** 156000

**Q.** Which “AUC Kasumi-1 Killing” value does the source give for B6 here?
**A.** 135000

**Q.** How did the “AUC Kasumi-1 Killing” value turn out when B7 was run?
**A.** 14400

**Q.** How did the “AUC Kasumi-1 Killing” value turn out when B8 was run?
**A.** 40000

**Q.** How did the “AUC Kasumi-1 Killing” value turn out when B9 was run?
**A.** 132000

**Q.** B10 was tested. Which “AUC Kasumi-1 Killing” value did it give?
**A.** 97400

**Q.** Which “AUC Kasumi-1 Killing” value does the source give for B11 here?
**A.** 78600
